This passage reports binding result and Kd results from patent CN117924498A (UNIV SOUTHWEST MEDICAL, dated 2024).

Assay [1] addresses EphA2蛋白 (UniProt P29317 25-534, limits assumed). The experiment in a line: ELISA, antigen coated at 1 μg/mL. A general note: In an ELISA, binding on a coated surface is turned into a signal by an enzyme label.
The target in assay [2] is T1, B7-H3蛋白 (UniProt Q5ZPR3-2 29-245, limits assumed).
T1 sequence (looked up): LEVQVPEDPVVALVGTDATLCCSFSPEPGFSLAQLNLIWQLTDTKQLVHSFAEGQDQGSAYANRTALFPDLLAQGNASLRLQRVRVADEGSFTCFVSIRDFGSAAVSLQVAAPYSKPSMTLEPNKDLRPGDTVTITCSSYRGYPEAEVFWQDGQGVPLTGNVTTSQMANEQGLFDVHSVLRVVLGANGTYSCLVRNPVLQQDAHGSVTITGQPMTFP
The experiment in a line: ELISA, antigen coated at 1 μg/mL.

Assay [3] deals with T2, Trop2蛋白 (UniProt P09758 27-274).
T2 sequence (looked up): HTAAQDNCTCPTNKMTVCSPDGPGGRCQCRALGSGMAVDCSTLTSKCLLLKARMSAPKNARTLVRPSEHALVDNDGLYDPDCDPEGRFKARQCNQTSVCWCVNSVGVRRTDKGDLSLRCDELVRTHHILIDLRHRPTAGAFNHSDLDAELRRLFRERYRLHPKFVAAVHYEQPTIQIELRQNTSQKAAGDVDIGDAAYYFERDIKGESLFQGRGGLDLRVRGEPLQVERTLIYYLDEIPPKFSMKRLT
The experiment in a line: ELISA, antigen coated at 1 μg/mL.

Assay [4] has as its target T3, CD24蛋白 (UniProt P25063 27-59).
T3 chain (looked up): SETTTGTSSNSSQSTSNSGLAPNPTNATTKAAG
The experiment in a line: ELISA, antigen coated at 1 μg/mL.

The target of assay [5] is T4, human-siglec-15蛋白 (human, UniProt Q6ZMC9 20-263, biotinylated in the BLI assay and in phage panning (site not stated)).
T4 construct: Bought protein (Novoprotein for ELISA coating; biotinylated antigen from Obiosh for panning); The same entry is used for the plain and the biotinylated protein; also called hsiglec-15; siglec-15抗原
T4 sequence (looked up): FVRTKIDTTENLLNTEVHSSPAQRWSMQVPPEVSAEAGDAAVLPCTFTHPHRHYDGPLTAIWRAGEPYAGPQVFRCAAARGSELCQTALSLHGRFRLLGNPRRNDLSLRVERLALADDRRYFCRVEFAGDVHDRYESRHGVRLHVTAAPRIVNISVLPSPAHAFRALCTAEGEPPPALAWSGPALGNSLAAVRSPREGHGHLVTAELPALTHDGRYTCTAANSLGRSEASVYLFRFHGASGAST
The assay is described as follows: BLI (Octet RED96), biotinylated siglec-15 on SA sensor, antibody at 5, 10, 20 μg/mL. In general terms: In BLI a coated tip is dipped into the sample, and binding shifts an interference pattern.

Sequence of EphA2蛋白 (P29317 25-534 limits assumed): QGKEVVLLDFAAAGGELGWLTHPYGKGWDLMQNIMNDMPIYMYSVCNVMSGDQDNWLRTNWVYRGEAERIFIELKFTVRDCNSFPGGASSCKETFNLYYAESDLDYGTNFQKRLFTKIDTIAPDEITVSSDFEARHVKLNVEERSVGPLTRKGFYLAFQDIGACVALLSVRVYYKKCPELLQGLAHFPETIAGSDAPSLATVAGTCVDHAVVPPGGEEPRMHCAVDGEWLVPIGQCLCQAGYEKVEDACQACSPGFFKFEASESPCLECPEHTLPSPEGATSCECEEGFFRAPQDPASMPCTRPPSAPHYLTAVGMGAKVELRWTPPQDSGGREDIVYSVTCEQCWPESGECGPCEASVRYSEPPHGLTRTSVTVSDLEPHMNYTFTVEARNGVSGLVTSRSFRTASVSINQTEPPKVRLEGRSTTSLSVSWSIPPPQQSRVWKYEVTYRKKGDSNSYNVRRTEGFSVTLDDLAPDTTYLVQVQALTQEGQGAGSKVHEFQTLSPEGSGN

B1: S131-IgG1 (antibody, V domains shown)
VH: QVQLQESGPGLVNPSGTLSLSCTVSGDSIRNWYSWVRQPPGKGLEWIGEIHDNGGTNHNPSLKSRVTMSVGKSTSQLSLILNSVTAADTAVYHCAREGLPDGLDIWGPGTMVTVSS
VL: SSELTQDPAVSVALGQTVRITCQGDSLRSYYASWYQRKPGQAPILVMYGQNNRPSGIPDRFSGSNSRNTASLTITGAQAEDEADYYCGSRDTSDYRVLFGGGTKLTVLG
notes: also called 抗siglec15-IgG1重组抗体S131-IgG1; 全人源抗siglec-15-IgG1抗体
In the case of B1, the binding result in assay [1], in assay [2], in assay [3] and in assay [4] was “no binding” in each case. Further, the Kd – broadly, the constant that tells how readily two partners part at equilibrium – in assay [5] is around 1 nM.
